Reference: the Immune Epitope Database (IEDB)

Experiments:
[1] = target: HLA-B*07:02; experiment: IEDB peptide-MHC binding, purified MHC/competitive/radioactivity; filed as Kd, often an IC50 or EC50 that approximates it; ≥ and ≤ were set here for values at or beyond the usual limits of such assays
[2] = target: HLA-B*08:01; experiment: as above
[3] = target: HLA-A*01:01; experiment: as above
[4] = target: HLA-B*40:01; experiment: as above
[5] = target: HLA-A*26:01; experiment: as above
[6] = target: HLA-B*58:01; experiment: IEDB peptide-MHC binding, purified MHC/direct/fluorescence; filed as Kd, often an IC50 or EC50 that approximates it; ≥ and ≤ were set here for values at or beyond the usual limits of such assays
[7] = target: HLA-B*15:01; experiment: as above
[8] = target: HLA-A*31:01; experiment: as above
[9] = target: HLA-A*11:01; experiment: as above
[10] = target: HLA-B*46:01; experiment: as above; details: source organism: West Nile virus
[11] = target: HLA-A*30:01; experiment: IEDB peptide-MHC binding, purified MHC/competitive/radioactivity; filed as Kd, often an IC50 or EC50 that approximates it; ≥ and ≤ were set here for values at or beyond the usual limits of such assays
[12] = target: HLA-A*24:02; experiment: as above
[13] = target: HLA-A*29:02; experiment: as above
[14] = target: HLA-A*23:01; experiment: as above
[15] = target: HLA-A*69:01; experiment: IEDB peptide-MHC binding, purified MHC/direct/fluorescence; filed as Kd, often an IC50 or EC50 that approximates it; ≥ and ≤ were set here for values at or beyond the usual limits of such assays
[16] = target: HLA-A*01:01; experiment: as above; details: source organism: Haemophilus influenzae
[17] = target: HLA-A*03:01; experiment: as above
[18] = target: HLA-A*26:01; experiment: as above
[19] = target: HLA-A*02:06; experiment: IEDB peptide-MHC binding, purified MHC/competitive/radioactivity; filed as Kd, often an IC50 or EC50 that approximates it; ≥ and ≤ were set here for values at or beyond the usual limits of such assays
[20] = target: HLA-A*32:01; experiment: as above
[21] = target: HLA-B*53:01; experiment: as above
[22] = target: HLA-A*33:01; experiment: as above; details: source organism: Dengue virus 1 Brazil/97-11/1997
[23] = target: HLA-B*40:01; experiment: IEDB peptide-MHC binding, purified MHC/direct/fluorescence; filed as Kd, often an IC50 or EC50 that approximates it; ≥ and ≤ were set here for values at or beyond the usual limits of such assays; details: source organism: Rickettsia prowazekii
[24] = target: HLA-A*02:01; experiment: as above; details: source organism: Rickettsia prowazekii
[25] = target: HLA-A*02:03; experiment: IEDB peptide-MHC binding, purified MHC/competitive/radioactivity; filed as Kd, often an IC50 or EC50 that approximates it; ≥ and ≤ were set here for values at or beyond the usual limits of such assays; details: source organism: Vaccinia virus WR
[26] = target: HLA-A*02:02; experiment: as above; details: source organism: Vaccinia virus WR
[27] = target: HLA-A*03:01; experiment: as above; details: source organism: Dengue virus 2 Peru/IQT2913/1996
[28] = source organism: Dengue virus 3 Martinique/1243/1999
[29] = source organism: Dengue virus 2 Peru/IQT2913/1996
[30] = source organism: Dengue virus 4 Philippines/H241/1956
[31] = source organism: Dengue virus 1 Brazil/97-11/1997
[32] = source organism: Mammarenavirus guanaritoense
[33] = source organism: Dengue virus 2 Jamaica/1409/1983
[34] = source organism: Mammarenavirus juninense
[35] = source organism: Dengue virus 4 Dominica/814669/1981
[36] = source organism: Vaccinia virus WR
[37] = source organism: Mammarenavirus tacaribeense
[38] = source organism: Haemophilus influenzae
[39] = source organism: Dengue virus 1 Singapore/S275/1990
[40] = source organism: Rickettsia prowazekii

SPTSYLDVDL
Kd [1, 28]: 1640 nM

KWKNRLNAL
Kd [2, 29]: 157 nM

FLGEDGCWY
Kd [3, 30]: 277 nM

RLKMDKLTL
Kd [2, 31]: 268 nM

KEENLVRSM
Kd [4, 31]: 1130 nM

GPMPVTVASA
Kd [1, 31]: 53.3 nM

ETAWDFGSVG
Kd [5, 30]: 138 nM

APHVGLGLET
Kd [1, 31]: 1160 nM

HTLESPVEF
Kd ([6]; source organism: SARS-CoV1): 98.1 nM | Kd ([7]; source organism: SARS-CoV1): 1440 nM | Kd ([8]; source organism: SARS-CoV1): 1400 nM | Kd ([9]; source organism: SARS-CoV1): ≥ 53900 nM

LLLLVAPAY
Kd [10]: ≥ 20000 nM

RQWFFDLPLP
Kd [11, 28]: 10800 nM

IMRNLTNLL
Kd [12, 32]: ≥ 33100 nM | Kd [13, 32]: 305 nM | Kd [14, 32]: 6150 nM

MWKQITPEL
Kd [14, 33]: 170 nM

PYIGSRSQI
Kd [12, 34]: 1080 nM | Kd [13, 34]: ≥ 21000 nM | Kd [14, 34]: 312 nM

WYMWLGARYL
Kd [12, 28]: 17.8 nM | Kd [14, 28]: 18.2 nM

RPRWLDARV
Kd [1, 35]: 1.7 nM

GAKIGCINV
Kd [11, 36]: 9.11 nM

LEFEALGFMN
Kd [4, 31]: 2660 nM

SFYCDPKRFF
Kd [12, 37]: 1980 nM | Kd [13, 37]: 156 nM | Kd [14, 37]: 491 nM

HLIIQYPSV
Kd [11, 36]: 164 nM

RPLKEKEENL
Kd [2, 33]: 1820 nM

LLLMRTSWA
Kd [2, 28]: 10.3 nM

HLAIMAVFKM
Kd [5, 30]: 9580 nM

EKEENMVKSL
Kd [2, 28]: 10600 nM

RVLLLTPEV
Kd [11, 36]: 48.6 nM

HSRASPRIG
Kd [11, 36]: 0.931 nM

IILWFFNAM
Kd [2, 36]: 5230 nM

NPLTLTAAVL
Kd [2, 31]: 305 nM

KKKQRSGVL
Kd [2, 31]: 2290 nM

GTEMFRHGY
Kd [7, 38]: 1160 nM | Kd [15, 38]: 4450 nM | Kd [16]: 241 nM | Kd [8, 38]: 8180 nM | Kd [9, 38]: 166 nM | Kd [17, 38]: 2730 nM

AYRIKQRGIL
Kd [2, 33]: 659 nM

LQLKGMSYSM
Kd [2, 33]: 70 nM

LARWGSFKK
Kd [11, 39]: 24.4 nM

EVAGAGSGF
Kd ([18]; source organism: Mycobacterium tuberculosis variant bovis): 1.4 nM

AGRLVRPFL
Kd [11, 36]: 252 nM

IPLQWIASA
Kd [1, 28]: 88.4 nM

KIKSPIYYK
Kd ([11]; source organism: Vaccinia virus Copenhagen): 0.932 nM

FFINFFNLL
Kd [2, 36]: 149 nM

MLLNRFTMA
Kd [2, 31]: 10.2 nM | Kd [19, 31]: 5.12 nM

PYMPSVVETL
Kd [12, 31]: 31.9 nM | Kd [14, 31]: 32.2 nM

YTQMCDHRL
Kd [3, 31]: 5710 nM

VVRPPFNML
Kd [1, 30]: 20.5 nM

KGRISYYEM
Kd [11, 36]: 14.4 nM

KTLAPFNFL
Kd [11, 36]: 15 nM

SPILSITISE
Kd [1, 33]: 2150 nM

DQLSKFRTL
Kd [2, 36]: 7.4 nM

HLSNYIVSI
Kd [20, 36]: 0.986 nM

LSTRDGEPLM
Kd [11, 30]: 1630 nM

KREDLWCGSL
Kd [2, 30]: 4730 nM

GYFTQTAGPW
Kd [12, 31]: ≥ 70300 nM | Kd [14, 31]: 1220 nM

GLRNSLLVA
Kd [11, 36]: 93.5 nM

GRLITANPVV
Kd [11, 28]: 1430 nM

PRRCMKPVIL
Kd [2, 33]: 2470 nM

AAIGKAWEEG
Kd [20, 39]: ≥ 69900 nM

IGESSSNPTI
Kd [11, 30]: 7340 nM

TKKVRTNAA
Kd [2, 28]: 43.6 nM

KISISYIKL
Kd [11, 36]: 292 nM

VFGAIYGAAF
Kd [12, 33]: 323 nM | Kd [14, 33]: 4.48 nM

YPFFRKLVL
Kd [2, 36]: 5.86 nM

FVEGVSGGSW
Kd [5, 33]: 14200 nM | Kd [21, 33]: 48.8 nM

RTKFQNRAK
Kd [11, 36]: 0.159 nM

ELCEDTMTY
Kd [5, 31]: 1740 nM

LEHGGCVTTM
Kd [4, 28]: 9.41 nM

ISYGGGWRFQ
Kd [20, 31]: ≥ 56400 nM

RLKSAVCYK
Kd [11, 36]: 0.175 nM

EVKTCTWPKS
Kd [20, 28]: ≥ 48400 nM

KVRPTFAAG
Kd [11, 33]: 4.4 nM

MTTEDMLAVW
Kd [21, 33]: 354 nM

HTSARLHSL
Kd [11, 36]: 4.14 nM

STRVEMGEA
Kd [11, 33]: 13.9 nM

LLNNYTLKI
Kd [20, 36]: 25.4 nM

LGRNKKPRL
Kd [2, 28]: 265 nM

PWLKNNQFCI
Kd [12, 28]: 224 nM | Kd [14, 28]: 102 nM

WRLSAQWQKG
Kd [20, 28]: ≥ 36000 nM

MLIPKSYAG
Kd [2, 35]: 114 nM

NYILWENNI
Kd [12, 28]: 2.85 nM | Kd [14, 28]: 6.03 nM

VESWEEVPYL
Kd [4, 33]: 41 nM

IMAVLFVVTL
Kd [2, 30]: 5420 nM

DEAHFTDPSS
Kd [11, 30]: 165 nM

SPLLLTSSQQ
Kd [1, 33]: 1220 nM

LAVVSVSPLL
Kd [11, 29]: 11900 nM

FMNEDHWFSR
Kd [20, 31]: 7080 nM | Kd [22]: 13.2 nM

LEKRHVLGRL
Kd [2, 33]: 7040 nM

RSGAYVSAI
Kd [20, 33]: 378 nM

EKWKRQLNSL
Kd [2, 30]: 251 nM

GLFPVSIPIT
Kd [11, 29]: 15900 nM

FGIFTTNIW
Kd [21, 31]: 168 nM

EPPFGDSYII
Kd [21, 33]: 363 nM

TIFTLTVAW
Kd ([20]; source organism: Dengue virus 3 Sri Lanka/1266/2000): 157 nM

TEHGTIATI
Kd [4, 31]: 80 nM

IMRMRFKKG
Kd [2, 36]: 62.4 nM

RARYKKMLK
Kd [11, 36]: 1.04 nM

PTEQVDTLL
Kd [3, 30]: 14800 nM

GEGVLSKADL
Kd [4, 28]: 42.4 nM

RQWFFDLPL
Kd [4, 28]: 42 nM | Kd [20, 28]: 1.17 nM

LTMKNKAWM
Kd [5, 28]: ≥ 45300 nM

GRTLRVLKMV
Kd [11, 31]: 634 nM

DARTYSDPLA
Kd [11, 31]: 924 nM

STVQQLTKRF
Kd [5, 33]: 6790 nM

GVIITWIGM
Kd [5, 33]: 15700 nM

SLGGVFTSI
Kd [20, 33]: 294 nM

LGLNSRSTSL
Kd [2, 31]: 39.9 nM

TEDDLQNEEL
Kd [4, 35]: 136 nM

ETFKVIGGW
Kd ([18]; source organism: Influenza A virus (A/swine/Italy/1654-1/99(H1N2))): 182 nM

KIFEYGFTF
Kd [6, 40]: 255 nM | Kd [23]: 4350 nM | Kd [7, 40]: 229 nM | Kd [15, 40]: 4280 nM | Kd [8, 40]: 196 nM | Kd [9, 40]: 377 nM | Kd [24]: 106 nM | Kd [17, 40]: 6020 nM

RPTPKGAVMD
Kd [1, 30]: 100 nM

EALYYVHSL
Kd [25]: 5770 nM | Kd [2, 36]: 2.11 nM | Kd [26]: 14200 nM | Kd [19, 36]: 14800 nM

HMIVSRQEK
Kd [11, 29]: 17.6 nM | Kd [27]: 21.2 nM

KTALLIVSG
Kd [20, 28]: 6830 nM

MTDKTPVHS
Kd [3, 30]: 6570 nM

RQWFLDLPLP
Kd [11, 33]: 11600 nM
